Laboratory results taken from publication PMC7870846, “Incorporation of sensing modalities into de novo designed fluorescence-activating proteins” (Nature Communications, 2021).
Changes are numbered by the printed parent chain. Numbers in names are those of the source.

B1: EF1p2_mFAP2b (K101A): K101A lysine-to-alanine substitution in EF1p2_mFAP2b (protein)
chain: SRAAQLLPGTWQVTMTNEDGQTSQGQWHFQPRSPYTMDIVAQGTISDGRPIVGYGKATVKTPDTLDIDITYPSLGNIKAQGQITMDSPTQFKWDAHYKGDADGDGYISAAEAAAQGLTGTLQRQE
B2: EF1p_mFAP2b: positively allosteric Ca2+-responsive mFAP, one EF-hand motif (protein)
chain: B1 chain with A101K, G116I

Experiments:
[1] = Ca2+-responsive mFAP Ca2+ titrations; type: binding; details: in the presence of excess DFHBI
Experimental: In measuring Ca^2+ affinity of mFAPs on a Synergy Neo2 hybrid multi-mode reader (Fig. 4d, e, f and Supplementary Figs. 10c, f, i, 11c, f, i, 13c, f, i, 16b), large-scale purified proteins[49] were aliquoted in technical triplicate to a final concentration of 500 nM with 5.00 μM DFHBI in eleven serial dilutions ( 10 dilution factor) of CaCl2 (Sigma Aldrich) starting from either 900 mM or 90.0 mM CaCl2 (diluted using high-salt Tev cleavage buffer) including a twelfth condition without CaCl2. Final volumes were 200 μL in flat bottom, black polystyrene, non-binding surface 96-well microplates (Corning 3650). Fluorescence endpoints were measured using excitation wavelength λex = 484 nm and emission wavelength λem = 508 nm. Background fluorescence endpoints of wells with identical chromophore and CaCl2 concentrations lacking protein (substituted for equivalent volumes of high-salt Tev cleavage buffer) were measured in technical triplicate, averaged per condition, and subtracted from protein measurement averages of the same conditions.
For Ca^2+ titrations of EF4n_mFAP2a and EF4n_mFAP2b (Supplementary Fig. 13c), a small amount of Chelex 100 sodium form (Sigma Aldrich) was added to purified protein (produced by large-scale protein purification and SEC purification[49]) and nutated at 4 °C overnight. EF4n_mFAP2a was aliquoted in technical triplicate to a final concentration of 8.00 μM with 80.0 μM DFHBI and EF4n_mFAP2b was aliquoted in technical triplicate to a final concentration of 6.25 μM with 43.4 μM DFHBI, in eleven serial dilutions ( 10 dilution factor) of CaCl2 starting from 9.00 mM or 4.00 mM CaCl2 (diluted using high-salt Tev cleavage buffer pre-treated with Chelex 100) including a twelfth condition without CaCl2. Final volumes were 25.0 μL in flat bottom, black polystyrene, non-binding surface 96-well half-area microplates (Corning 3686) or 200 μL in flat bottom, black polystyrene, non-binding surface 96-well microplates (Corning 3650). Fluorescence endpoints were measured for EF4n_mFAP2a using excitation wavelength λex = 478 nm and emission wavelength λem = 520 nm, and for EF4n_mFAP2b using excitation wavelength λex = 484 nm and emission wavelength λem = 508 nm. Background fluorescence endpoints of wells with identical chromophore and CaCl2 concentrations lacking protein (substituted for equivalent volumes of high-salt Tev cleavage buffer) were measured in technical triplicate, averaged per condition, and subtracted from protein measurement averages of the same conditions. For non-linear least squares fitting to obtain Kd values, means were fit to a single-binding site isotherm function where Ca^2+-binding sites were modeled independently with a Hill coefficient of 1.

[2] = Ca2+-responsive mFAP DFHBI titrations; type: binding; details: in the presence of excess Ca2+ (Kd+)
Experimental: Final volumes were 25.0 μL in flat bottom, black polystyrene, non-binding surface 96-well half-area microplates (Corning 3686) or 200 μL in flat bottom, black polystyrene, non-binding surface 96-well microplates (Corning 3650). Fluorescence endpoints were measured using excitation wavelength λex = 488 nm and emission wavelength λem = 510 nm. Background fluorescence endpoints of wells with identical chromophore concentrations lacking protein (substituted for equivalent volumes of high-salt Tev cleavage buffer) were measured and subtracted from protein measurements prior to normalization.
For DFHBI titrations of EF4n_mFAP2a and EF4n_mFAP2b (Supplementary Fig. 13a, b), a small amount of Chelex 100 sodium form (Sigma Aldrich) was added to purified protein (produced by large-scale protein purification and SEC purification[49]) and nutated at 4 °C overnight. […] Fluorescence endpoints were measured using excitation wavelength λex = 488 nm and emission wavelength λem = 510 nm for EF4n_mFAP2b, and excitation wavelength λex = 478 nm and emission wavelength λem = 520 nm for EF4n_mFAP2a. Background fluorescence endpoints of wells with identical chromophore concentrations lacking protein (substituted for equivalent volumes of Chelex 100 pre-treated high-salt Tev cleavage buffer) were measured and subtracted from protein measurements prior to normalization.

HEK293 cells = assay: HEK293 cell surface-displayed Ca2+ titrations; type: cell-based; details: Ca2+ from 0 to 10 mM; 7.00 µM DFHBI; extracellular display
Experimental: Plasmid DNAs (Supplementary Data 15 and Supplementary Data 17) were purified in ddH2O for transfections. pGP-CMV-GCaMP6f was a gift from Douglas Kim & GENIE Project (Addgene plasmid #40755; [http://n2t.net/addgene:40755]; RRID: Addgene_40755). Wild-type HEK293 cells (ATCC CRL-1573) were cultured on 24-well plates in DMEM media (4.5 g L^−1 D-glucose, L-glutamine; ThermoFisher #11965-092) supplemented with 10% FBS and 1% Penicillin/Streptomycin in a 5% CO2 atmosphere at 37 °C. Cells were seeded into 24-well plates (ThermoFisher #FB012929) at 100,000 cells well^−1. Twenty-four hours after seeding, cell media was aspirated and replaced with 200 μL of DMEM media. […]
Data analysis: Regions of interest (ROIs) surrounding single cells from three technical replicates were hand-drawn in ImageJ software. For each cellular ROI in each frame the average fluorescence was calculated in ImageJ. In order to perform background subtraction, cellular ROIs were then moved proximal to the original cell to an ROI where there was no fluorescence. Each cellular ROIs average fluorescence had the average background intensity subtracted for each frame. […]

Row | Molecule | reduction of Ca2+ affinity compared with EF1p2_mFAP2b [1] | reduction of DFHBI affinity compared with EF1p2_mFAP2b [2] | fluorescence fold-change (ΔF/F0) (HEK293 cells)
1 | B1 | ~ 29 fold | ~ 21 fold | 
2 | B2 |  |  | ~ 0.5
